This note sets out measurements from US20100330095A1 (U3 PHARMA, published 2010).

Residue numbers refer to the chain shown, from its start.

Assay [1] addresses T1, mouse AXL (mouse, UniProt Q00993 19-888).
T1 construct: whole, on cells; Transiently expressed on HEK293T cells (pcDNA3-mAXL); also called mAXL
T1 sequence (looked up): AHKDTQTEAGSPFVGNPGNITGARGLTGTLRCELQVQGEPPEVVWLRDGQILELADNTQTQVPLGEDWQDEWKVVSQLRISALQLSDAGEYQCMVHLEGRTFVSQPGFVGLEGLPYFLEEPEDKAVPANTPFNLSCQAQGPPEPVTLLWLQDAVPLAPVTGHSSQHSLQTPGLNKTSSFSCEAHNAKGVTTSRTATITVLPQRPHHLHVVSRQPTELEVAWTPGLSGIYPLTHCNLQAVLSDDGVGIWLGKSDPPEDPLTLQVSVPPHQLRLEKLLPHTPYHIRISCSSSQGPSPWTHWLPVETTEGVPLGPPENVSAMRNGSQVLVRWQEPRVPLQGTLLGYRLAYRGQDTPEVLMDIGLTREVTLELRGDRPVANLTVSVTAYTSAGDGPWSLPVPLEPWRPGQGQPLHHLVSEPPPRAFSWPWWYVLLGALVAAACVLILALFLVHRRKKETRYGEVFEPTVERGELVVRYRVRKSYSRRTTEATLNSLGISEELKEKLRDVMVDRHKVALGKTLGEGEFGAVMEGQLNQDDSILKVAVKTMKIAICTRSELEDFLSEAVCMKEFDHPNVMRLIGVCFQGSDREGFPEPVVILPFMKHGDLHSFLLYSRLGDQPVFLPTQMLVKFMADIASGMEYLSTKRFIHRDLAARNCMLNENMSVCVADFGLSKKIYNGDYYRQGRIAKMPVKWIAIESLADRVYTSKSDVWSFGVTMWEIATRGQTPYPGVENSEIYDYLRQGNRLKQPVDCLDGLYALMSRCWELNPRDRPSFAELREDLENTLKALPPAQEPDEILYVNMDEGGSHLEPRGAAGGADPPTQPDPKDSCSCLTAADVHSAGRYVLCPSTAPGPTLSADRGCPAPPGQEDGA
Briefly: flow cytometry, transiently transfected HEK293T cells. Here is the method: FIG. 3. Flow cytometry analysis of cross-reactivity of rat-anti AXL antibodies with mouse and cynomolgus monkey AXL as well as human Mer and Sky. HEK293T fibroblasts were transiently transfected with pcDNA3, pcDNA3-hAXL, pcDNA3 mAXL, pcDNA3-cyAXL, pcDNA3-hMer, or pcDNA3-hSky. […] See text for details.
For FACS analysis, 2×10⁵ cells were harvested with 10 mM EDTA in PBS, washed once with FACS buffer (PBS, 3% FCS, 0.4% azide) and seeded on a 96 well round bottom plate. […] After incubation on ice for 1 h, cells were washed twice with chilled FACS buffer and resuspended with PE-conjugated donkey anti-rat (Jackson) secondary antibody diluted 1:50 in FACS buffer (100 μl/well) or PE-conjugated donkey anti-mouse secondary antibody for control. Protected from light, cells were incubated on ice for 30 min, washed twice with FACS buffer and analyzed using an Epics XL-MCL flow cytometer (Beckman Coulter).
In general terms: A flow cytometer gives signals particle by particle.

Assay [2] addresses T2, human receptor tyrosine kinase AXL transcript variant 1 (human, UniProt P30530 26-894).
T2 sequence: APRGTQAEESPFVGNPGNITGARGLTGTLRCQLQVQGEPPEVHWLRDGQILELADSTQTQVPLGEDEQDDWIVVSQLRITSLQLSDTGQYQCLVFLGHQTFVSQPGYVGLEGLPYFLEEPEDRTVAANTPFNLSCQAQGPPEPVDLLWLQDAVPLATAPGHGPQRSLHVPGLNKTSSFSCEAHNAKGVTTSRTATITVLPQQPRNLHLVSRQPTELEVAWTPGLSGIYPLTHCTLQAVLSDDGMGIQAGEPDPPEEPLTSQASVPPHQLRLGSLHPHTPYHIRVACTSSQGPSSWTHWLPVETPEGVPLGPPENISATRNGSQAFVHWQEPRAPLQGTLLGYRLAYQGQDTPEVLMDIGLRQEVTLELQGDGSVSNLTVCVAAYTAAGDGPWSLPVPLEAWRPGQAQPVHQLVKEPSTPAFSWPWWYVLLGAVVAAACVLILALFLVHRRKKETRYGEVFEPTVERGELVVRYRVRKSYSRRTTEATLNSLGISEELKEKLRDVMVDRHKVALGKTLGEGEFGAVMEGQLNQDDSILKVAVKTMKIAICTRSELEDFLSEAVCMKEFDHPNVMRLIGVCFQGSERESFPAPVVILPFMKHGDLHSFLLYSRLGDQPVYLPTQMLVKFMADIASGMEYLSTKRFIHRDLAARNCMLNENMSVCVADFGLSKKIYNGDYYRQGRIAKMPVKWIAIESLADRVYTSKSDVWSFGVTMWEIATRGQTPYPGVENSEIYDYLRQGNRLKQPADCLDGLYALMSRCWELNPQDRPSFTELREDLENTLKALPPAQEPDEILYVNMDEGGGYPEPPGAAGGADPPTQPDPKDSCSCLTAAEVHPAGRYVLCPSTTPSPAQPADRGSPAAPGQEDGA
Briefly: cell-based or functional assay.

Assay [3] addresses T2, human receptor tyrosine kinase AXL …. Briefly: FACS Scatchard (apparent KD) on human AXL overexpressing NIH3T3 cells. Here is the method:
Human AXL overexpression NIH3T3 cells were harvested by incubation with 10 mM EDTA in PBS and resuspended at 6 million cells per ml in FACS buffer (PBS pH 7.4, 3% FCS, 0.1% NaN₃). […] Antibody binding was allowed to proceed for 2 hours on ice. Then, cells were washed twice with 250 μl FACS buffer per well, and resuspended in 200 μl of secondary antibody (anti-rat-PE; Jackson) diluted 1:50 in FACS buffer. After 45 minutes of incubation, cells were again washed twice in FACS buffer and resuspended in […] PBS for FACS analysis. Analysis was carried out on a Beckman-Coulter FACS FC500. To determine the apparent affinity constant KDapp, mean fluorescence values were plotted against the ratio of mean fluorescence and the corresponding antibody concentration ([M]).

B1: III 11D5 (antibody, rat IgG2a, V domains shown)
VH: EVQLQESGPGLVKPSQSLSLTCSVTGYSITSNYWGWIRKFPGNKMEWIGHITNSGNTTYNPSLKSRISISRDTSRNQFFLQLNSVTTEDTATYYCAKGAFDYWGQGVMVTVSS
VL: DIQMTQSPSSMSTSLGDRVTITCRASQDIGNYLSWFQQKVGKSPRRMIYGAIKLAVGVPSRFSGSRSGSDYSLTISSLESEDMAIYYCLQYIQFPLTFGSGTKLELK
notes: rat hybridoma antibody, antagonistic
In the case of B1, the binding result in assay [1] was “no binding (tested: 10 µg/ml)”. In addition, in assay [2], the “IC50 of VEGF-A-stimulated HUVEC spheroid sprouting” value came out at 700 nM. The Kd in assay [3] was determined as 0.81 nM.

B2: I 11B7 (antibody, V domains shown)
VH: EVQLQESGPGLVKPSQSLSLTCSVTGYSITSNYWGWIRKFPGDKMEWMGYITYSGSTSYNPSLKSRISITRDTSKNQFFLQLNSVTSEDTATYYCAITTFYYWGQGVMVTVSS
VL: DIQMTQAPSSLPASLGDRVTITCRASQDIGNYLRWFQQKPGKSPRLMISGATNLAAGVPSRFSGSRSGSDYSLTISSLESEDMADYYCLQSKESPWTFGGGTKLELK
notes: as for B1
Take B2: the binding result in assay [1] is reported as “no binding (tested: 10 µg/ml)”. Moreover, the “IC50 of VEGF-A-stimulated HUVEC spheroid sprouting” value in assay [2] stood at 98 nM. For the same molecule, the Kd in assay [3] came out at 0.38 nM.

B3: I 10D12 (antibody, V domains shown)
VH: EVQLQESGPGLVKPSQSLSLTCSVTGYSITSNYWGWIRKFPGNKMEWMGYITNSGGTAYNPSLKSRISITRDTSKNQFFLQLNSVIPEDSATYFCSRTPWDWGQGVMVTVSS
VL: B2 VL with T22A, L73R
notes: rat hybridoma antibody, antagonistic; subclass G1
In the case of B3, in assay [1], the binding result is given as “no binding (tested: 10 µg/ml)”.
